According to publication PMC6458161 (2019):
Each block holds one molecule with its values, some of them ahead of it.

Key:
[1] = system: GCDNA (DNA, duplex) GCGCGCGCGC; assay: ITC, one set of sites fit; conditions: Na+ 100 mM (from the 10 mM Hepes/100 mM NaCl UV and gel buffer; the ITC buffer is only given as Hepes buffer), 25 °C, 500 µM EtBr titrated into 10 µM DNA (strand concentration)
[2] = system: ATDNA (DNA, duplex) GCAAATTTGC; assay: ITC, one set of sites fit; conditions: Na+ 100 mM (from the 10 mM Hepes/100 mM NaCl UV and gel buffer; the ITC buffer is only given as Hepes buffer), 25 °C, 200 µM EtBr titrated into 10 µM DNA (strand concentration)
[3] = system: protamine (sulfate salt) (salmon); assay: ITC; conditions: ITC in Hepes buffer, 25 C (salt and pH not given in the material), short duplexes 10 uM (strand concentration), protamine 100 uM
[4] = system: GCDNA (DNA, duplex) GCGCGCGCGC; assay: ITC; conditions: Hepes buffer, 25 °C; 200 µM Net titrated into 10 µM DNA (strand concentration)
[5] = 20 uM ethidium bromide (EtBr-bound DNA)

KA [1]: 145000 M⁻¹
KA [2]: 165000 M⁻¹
Molecule: CC[n+]1c(-c2ccccc2)c2cc(N)ccc2c2ccc(N)cc21

Molecule: GCGCGCGCGC (double strand) [GCDNA]
Ka [3, 5]: 4.5e+06 M⁻¹
Ka ([3]; 20 uM netropsin): 4.5e+07 M⁻¹
Ka ([3]; no drug): 3.4e+07 M⁻¹

Molecule: CTDNA (calf thymus DNA)
Ka ([3]; 60 uM ethidium bromide (EtBr-bound DNA)): 6.36e+07 M⁻¹
Ka ([3]; 60 uM netropsin (Net-bound DNA)): 5.54e+07 M⁻¹
Ka ([3]; no drug, CTDNA titrated into protamine): 550000 M⁻¹

binding [4]: no
Molecule: Cn1cc(NC(=O)c2cc(NC(=O)CN=C(N)N)cn2C)cc1C(=O)NCCC(=N)N

Molecule: GCAAATTTGC (double strand) [ATDNA]
Ka [3, 5]: 3.9e+06 M⁻¹
Ka ([3]; 20 uM netropsin (Net-bound DNA)): 1.89e+08 M⁻¹
Ka ([3]; no drug): 1.4e+08 M⁻¹
